Target: transferrin receptor on NIH3T3 cells and on C2C12 and G8 myoblasts and myotubes (Mus musculus (Mouse)) (UniProt Q62351)

How did the luciferase activity turn out when “human transferrin-polylysine conjugate (from UniProt P02787) (ligand)” was run?
The luciferase activity was less than 1 log.

— patent US5547932
